According to paper PMC11696079:

Legend:
[1] = target: circPETH-147aa, recombinant wild type (human); assay: SPR
[2] = target: circPETH-147aa MEG/3 A, recombinant (human); assay: SPR

Kd [1]: 42.4 nM | Kd [2]: 1410 nM
B1: recombinant wild-type ALDOA (WT) (enzyme)
chain: PYQYPALTPEQKKELSDIAHRIVAPGKGILAADESTGSIAKRLQSIGTENTEENRRFYRQLLLTADDRVNPCIGGVILFHETLYQKADDGRPFPQVIKSKGGVVGIKVDKGVVPLAGTNGETTTQGLDGLSERCAQYKKDGADFAKWRCVLKIGEHTPSALAIMENANVLARYASICQQNGIVPIVEPEILPDGDHDLKRCQYVTEKVLAAVYKALSDHHIYLEGTLLKPNMVTPGHACTQKFSHEEIAMATVTALRRTVPPAVTGITFLSGGQSEEEASINLNAINKCPLLKPWALTFSYGRALQASALKAWGGKKENLKAAQEEYVKRALANSLACQGKYTPSGQAGAAASESLFVSNHAY
